Reference: the RNAGym collection of RNA variant scans (doi:10.1073/pnas.2313332121)

B1: TPR t1 (parent)
chain: GACCAAUCUGCCCUCAGAGCUCGAGAACAUCUUCGGAUGCAGAGGAGGCAGGCUUCGGUGGCGCGAUAGCGCCAACGUCCUCAACCUCCAAUGCAUCCCACCACAUGAUGAUGCCUGAAGAGCCUUGGUUUUUUG

Variants of: B1
Test: polymerase ribozyme fitness, log enrichment relative to wild type (log ratio); higher = more active; in vitro selection for triplet polymerase activity
Outline: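 Streptavidin-bead capture of gel-excised extended constructs, followed by RT-PCR, closed a single triplicate in vitro selection round. That round began by annealing PCR-built, transcribed mutant libraries of each subunit of a heterodimeric triplet polymerase ribozyme with a biotinylated primer, the partner subunit and triplets, then incubating them frozen at −7 °C. After Illumina sequencing of inputs and outputs, genotypes needed ≥10 input reads and ≥1 read per output. Fitness is the base-2 logarithm of genotype enrichment over wild-type enrichment, using inverse-variance-weighted replicate averages.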

Q: With A2G U9C G69C as the variant, how does the “polymerase ribozyme fitness (log ratio)” value read?
A: -0.585

Q: For C49G G60U U78C C97A, which “polymerase ribozyme fitness (log ratio)” value is on record?
A: -5.83

Q: Which “polymerase ribozyme fitness (log ratio)” value does the source give for A16U A46U C49A here?
A: -2.45

Q: Which “polymerase ribozyme fitness (log ratio)” value does the source give for U9C C53U G69C here?
A: -0.176

Q: For U109A U129A, which “polymerase ribozyme fitness (log ratio)” value is on record?
A: -6.83

Q: For A91G U125A, which “polymerase ribozyme fitness (log ratio)” value is on record?
A: -0.619

Q: Which “polymerase ribozyme fitness (log ratio)” value does the source give for A6U G69A C115U G120C here?
A: -5.82

Q: With C56U C73U as the variant, how does the “polymerase ribozyme fitness (log ratio)” value read?
A: -0.755

Q: Which “polymerase ribozyme fitness (log ratio)” value does the source give for C8A G19A U87C A91C G113C G127C here?
A: -2.18

Q: With G35C C86A C101U U109C C124G as the variant, how does the “polymerase ribozyme fitness (log ratio)” value read?
A: -7.22

Q: With U7A C20A A26G C82U U125A as the variant, how does the “polymerase ribozyme fitness (log ratio)” value read?
A: -3.24

Q: For A27G G69A, which “polymerase ribozyme fitness (log ratio)” value is on record?
A: -2.88

Q: Which “polymerase ribozyme fitness (log ratio)” value does the source give for C22A G52U A66U U112G here?
A: -5.88

Q: Which “polymerase ribozyme fitness (log ratio)” value does the source give for C4U A41G here?
A: -0.698

Q: With C15A C70A as the variant, how does the “polymerase ribozyme fitness (log ratio)” value read?
A: -2.47

Q: With U9A G42A U87C C101A G120A as the variant, how does the “polymerase ribozyme fitness (log ratio)” value read?
A: -1.63

Q: With C98A C99A as the variant, how does the “polymerase ribozyme fitness (log ratio)” value read?
A: -6.47

Q: For A2U U38A G63A C88U, which “polymerase ribozyme fitness (log ratio)” value is on record?
A: -4.16

Q: With C40U G135U as the variant, how does the “polymerase ribozyme fitness (log ratio)” value read?
A: -1.59

Q: With U30C C101U A111C as the variant, how does the “polymerase ribozyme fitness (log ratio)” value read?
A: -3.68

Q: With G47U G51U C73U as the variant, how does the “polymerase ribozyme fitness (log ratio)” value read?
A: -6.37

Q: Which “polymerase ribozyme fitness (log ratio)” value does the source give for U109G G110A here?
A: -3.89

Q: Which “polymerase ribozyme fitness (log ratio)” value does the source give for C3G U7A C11A C40A C73U C85G here?
A: -4.89

Q: For U9G C15A C97U A108G G120A, which “polymerase ribozyme fitness (log ratio)” value is on record?
A: -1.87

Q: Which “polymerase ribozyme fitness (log ratio)” value does the source give for C49A U92G G117U C123U here?
A: -6.98

Q: For U14C U78A C80A, which “polymerase ribozyme fitness (log ratio)” value is on record?
A: -4.98

Q: With G57U C85A as the variant, how does the “polymerase ribozyme fitness (log ratio)” value read?
A: -2.14

Q: For U78C C94G A108G C114G U130G, which “polymerase ribozyme fitness (log ratio)” value is on record?
A: -5.42

Q: For A37U G71A, which “polymerase ribozyme fitness (log ratio)” value is on record?
A: -1.12

Q: With A46C C53U C56A U112A as the variant, how does the “polymerase ribozyme fitness (log ratio)” value read?
A: 0.259

Q: For C89A C123U C124G, which “polymerase ribozyme fitness (log ratio)” value is on record?
A: 1.14

Q: With A18G A68G U116G C123U as the variant, how does the “polymerase ribozyme fitness (log ratio)” value read?
A: -5.7

Q: With A41G G61C A95C C101U U106A as the variant, how does the “polymerase ribozyme fitness (log ratio)” value read?
A: -3.41

Q: Which “polymerase ribozyme fitness (log ratio)” value does the source give for C4G U78C C88U C94G C124U here?
A: -2.42

Q: With G60U C62G A83C as the variant, how does the “polymerase ribozyme fitness (log ratio)” value read?
A: -0.657

Q: For C13A U129A, which “polymerase ribozyme fitness (log ratio)” value is on record?
A: -2.8

Q: With G58U A103C A121G as the variant, how does the “polymerase ribozyme fitness (log ratio)” value read?
A: -4.29

Q: With U7G G42A U81A U109A U130C as the variant, how does the “polymerase ribozyme fitness (log ratio)” value read?
A: -5.79

Q: Which “polymerase ribozyme fitness (log ratio)” value does the source give for C4G G51U G120U here?
A: -4.56

Q: For U55C C62U C98A, which “polymerase ribozyme fitness (log ratio)” value is on record?
A: -6.18

Q: With C15G G63A U116G as the variant, how does the “polymerase ribozyme fitness (log ratio)” value read?
A: -3.64

Q: Which “polymerase ribozyme fitness (log ratio)” value does the source give for A83C G110U G117U here?
A: -5.17

Q: For A6U G44C C72G G110A C115A, which “polymerase ribozyme fitness (log ratio)” value is on record?
A: -4.85

Q: Which “polymerase ribozyme fitness (log ratio)” value does the source give for C3U U125A here?
A: -1.04

Q: With C15U G52A C102G C124A as the variant, how does the “polymerase ribozyme fitness (log ratio)” value read?
A: -5.21

Q: With G23U C73G as the variant, how does the “polymerase ribozyme fitness (log ratio)” value read?
A: -4.76

Q: Which “polymerase ribozyme fitness (log ratio)” value does the source give for A16U G52A C72U here?
A: -1.31

Q: With G69C U81C C88U U106C as the variant, how does the “polymerase ribozyme fitness (log ratio)” value read?
A: -2.4

Q: With C62G G117C as the variant, how does the “polymerase ribozyme fitness (log ratio)” value read?
A: -5.09

Q: Which “polymerase ribozyme fitness (log ratio)” value does the source give for C72G G107A here?
A: -4.9

Q: For A121U C123G, which “polymerase ribozyme fitness (log ratio)” value is on record?
A: 1.92

Q: Which “polymerase ribozyme fitness (log ratio)” value does the source give for U9A A29U G36C G44U C72A A84G here?
A: -3.62

Q: With U9G C12G G93C as the variant, how does the “polymerase ribozyme fitness (log ratio)” value read?
A: -0.487

Q: For G44C G93A, which “polymerase ribozyme fitness (log ratio)” value is on record?
A: -0.685

Q: Which “polymerase ribozyme fitness (log ratio)” value does the source give for C56A G69U C73U C124A here?
A: 1.14

Q: For G42A A43C, which “polymerase ribozyme fitness (log ratio)” value is on record?
A: -2.41

Q: Which “polymerase ribozyme fitness (log ratio)” value does the source give for C49A U78A here?
A: -1.14

Q: For U59G C124U, which “polymerase ribozyme fitness (log ratio)” value is on record?
A: 1.25

Q: With A18C G42U U54C C82G as the variant, how does the “polymerase ribozyme fitness (log ratio)” value read?
A: -2.51

Q: Which “polymerase ribozyme fitness (log ratio)” value does the source give for G69A A95C G113A here?
A: -3.61

Q: Which “polymerase ribozyme fitness (log ratio)” value does the source give for C70U A105C here?
A: -3.43

Q: For U7C G42U G47A, which “polymerase ribozyme fitness (log ratio)” value is on record?
A: -1.32

Q: Which “polymerase ribozyme fitness (log ratio)” value does the source give for A66G C72U G107A C123A here?
A: -6.86

Q: Which “polymerase ribozyme fitness (log ratio)” value does the source give for C88U C124A here?
A: 1.47

Q: With G51A U112G as the variant, how does the “polymerase ribozyme fitness (log ratio)” value read?
A: -3.74

Q: With C56U C80A C114U as the variant, how does the “polymerase ribozyme fitness (log ratio)” value read?
A: -4.51

Q: Which “polymerase ribozyme fitness (log ratio)” value does the source give for A6G C12U G58A G113C here?
A: -1.75

Q: For U78G C88U A91U A95U, which “polymerase ribozyme fitness (log ratio)” value is on record?
A: -3.4

Q: Which “polymerase ribozyme fitness (log ratio)” value does the source give for G10A U109A here?
A: -5.39

Q: With C11U C15A G45U C72A U129A as the variant, how does the “polymerase ribozyme fitness (log ratio)” value read?
A: -5.41

Q: With G35C C49G U78A as the variant, how does the “polymerase ribozyme fitness (log ratio)” value read?
A: -5.52

Q: Which “polymerase ribozyme fitness (log ratio)” value does the source give for G113C A119G here?
A: -0.737

Q: With A46G C72G C85G as the variant, how does the “polymerase ribozyme fitness (log ratio)” value read?
A: -4.41

Q: Which “polymerase ribozyme fitness (log ratio)” value does the source give for C12A G48C U54C A83C C88A here?
A: -2.86

Q: For G61U A83C C89G, which “polymerase ribozyme fitness (log ratio)” value is on record?
A: -1.83

Q: With A5U C72U G128U as the variant, how does the “polymerase ribozyme fitness (log ratio)” value read?
A: -2.15

Q: For C11A G52A G110U G135U, which “polymerase ribozyme fitness (log ratio)” value is on record?
A: -5.37

Q: Which “polymerase ribozyme fitness (log ratio)” value does the source give for C34A A41G here?
A: -3.94

Q: With C99U A118G as the variant, how does the “polymerase ribozyme fitness (log ratio)” value read?
A: -2.48

Q: For A90U G110U, which “polymerase ribozyme fitness (log ratio)” value is on record?
A: -3.55

Q: For G63U U133G, which “polymerase ribozyme fitness (log ratio)” value is on record?
A: -1.94

Q: With C56G A111C A119U as the variant, how does the “polymerase ribozyme fitness (log ratio)” value read?
A: -1.72

Q: For C8U A24G U112G, which “polymerase ribozyme fitness (log ratio)” value is on record?
A: -0.0167

Q: Which “polymerase ribozyme fitness (log ratio)” value does the source give for C40U G42A C101G C114A here?
A: -5.28

Q: For G45A G60C, which “polymerase ribozyme fitness (log ratio)” value is on record?
A: -0.0735

Q: With A26U U81A as the variant, how does the “polymerase ribozyme fitness (log ratio)” value read?
A: -4.77

Q: With U7G U21C G47U C56U as the variant, how does the “polymerase ribozyme fitness (log ratio)” value read?
A: -1.15

Q: For C11U C88U C104A A121G, which “polymerase ribozyme fitness (log ratio)” value is on record?
A: 0.139
